The supplement of paper PMC9170038

System: MS2 coat protein
Test: apparent KD of MS2 coat protein; higher = weaker reporter binding
Settings: Eterna round: R107
How it was run: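 SNAP-549-labelled MS2 coat protein was titrated onto designed RNA switches that had been transcribed on-chip from Illumina sequencing clusters. Amounts doubled from 0.7 or 1.5 nM to 3 µM in 100 mM Tris-HCl pH 7.5, 80 mM KCl, 4 mM MgCl2, with constant ligand or without. Apparent KD is the median per design of normalised cluster binding-curve fits.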

[1] = input ligand: theophylline 20 uM
[2] = input ligand: tryptophan 2.4 mM
[3] = input ligand: theophylline 2 mM

| Sequence | apparent KD of MS2 coat protein (input ligand: arginine 13.2 mM) | apparent KD of MS2 coat protein [1] | apparent KD of MS2 coat protein [2] | apparent KD of MS2 coat protein (input ligand: none) | apparent KD of MS2 coat protein [3] |
| --- | --- | --- | --- | --- | --- |
| UGCAUCAUAAUCAUGUAGGUGCUAGGUGAUACCAGCAUCGAAAGAUGCCCUUGGCAGCACCAACAUGAGGAUCACCCAUGUAAUA [(MT)''-(M)'-(T')-(Theo)-(Ms2)_Design1/22_1] | 48.4 nM | 186 nM | 231 nM | – | – |
| UGCGACAAGUGAAUACUUUGUUCUAGAGAUACCAGUUCCCGAGUGAACCCUUGGCAGCUCCCAACAUGAGGAUCACCCAUGUAUU [theeternabot_exclusion_MS2_Theo_A_24] | 15.9 nM | 20 nM | 13.5 nM | – | – |
| UGGCAAGAGGGAAGGAGCGUCAGCUGAGUCACAUGAGGAUCACCCAUGUCGCACAUAGUGUGACAGGUAGGUCGCCCUCUGCCGU [Vesosocera] | 70 nM | 152 nM | 122 nM | 122 nM | 207 nM |
| UGGCAGCACCUCAUGUGCUGCCAAGGUGAUACCAGCAUCGAAAGAUGCCCUUGGCAGCACCAACAUGAGGAUCACCCAUGUAAUA [(MT)''-(M)'-(T')-(Theo)-(Ms2)_Design1/22_7] | 26.8 nM | 374 nM | 217 nM | – | – |
| UGGGUUGGACCAGGAAAUGGUCUGACUCACCGAGGACCGGUACGGCCGCCACUCGUAGGUACAUGAGGAUCACCCAUGUCGGUGG [#1 Same State - Tryptophan A Attempt #11 (HarryS)] | 91.7 nM | 34.2 nM | 68.8 nM | 23.6 nM | 36.2 nM |
| UGUAACAUGAGGAUCACCCAUGUAAGUGAUACCAGAUAAGUAGUAGUCCCUUGGCAGCAUAUUGGGCAAGUGUAUAGUCUAUACG [Same State - Theophylline A (Freestyle 6)] | 43 nM | 65.3 nM | 48.3 nM | – | – |
| UGUACAGACAUCGAAUUCCUAUGUGCUGAAGGAGCGUCGUUGACGACAGGUAGGUCGCAGUUAACAUGAGGAUCACCCAUGUACA [Arg A Ex t5] | 45.8 nM | 82.3 nM | 77.5 nM | 85.8 nM | 119 nM |
| UGUACCUAGUCGGCCGCCACUCAAUAAUGAGAGGAUCACCCUCAUAAACGAGUCAAAGACUCGAUGAGGACCGGGACUAGGUACU [Palindromic MS2 2 #AlternativeMS2 #Palindrome #StaticStem] | 59.4 nM | 73.2 nM | 21.1 nM | 53 nM | 72.7 nM |
| UGUAUGUGAUCUGAUACCAGCGAUGAUAACCUGAGGAUCACCCUGGUAUGGCGAAAGCCUCGCCCUUGGCAGCAGAUCGCAUACU | 184 nM | 402 nM | 1210 nM | 747 nM | 30.7 nM |
| UGUAUGUGAUCUGAUACCAGUCCAACUGGUAAAGCAUGAGGAACACCCAUGCAAAAUUGGGACCCUUGGCAGCAGAUCGCAUACU | 169 nM | 255 nM | 278 nM | 247 nM | 34.6 nM |
| UGUAUGUGAUCUGAUACCAGUCCAACUGGUAAAUCAUGAGGAUCACCCAUGGAAAAUUGGGACCCUUGGCAGCAGAUCGCAUACU | 94.1 nM | 490 nM | 1070 nM | 452 nM | 38.1 nM |
| UGUAUGUGAUGUGAUACCAGUCCAAUACUGGUAACAUGAGGAUCACCCAUGUAAUGAUGGGACCCUUGGCAGCACAUCGCAUACU [ThBS] | 175 nM | 347 nM | 242 nM | – | – |
| UGUUUGGUGCGCGAGUGUUGGAUAAUUGAUACCAGUGUAGAUGUGCGCCCUUGGCAGCGAAUCCUAACAUGAGGAUCACCCAUGU [5.Y] | 38.2 nM | 59.5 nM | 41.8 nM | – | – |
| UGUUUUUAUCGAAGGAGCGCCGCAUGAGGAUCACCCAUGCACAUGAGGAUCACCCAUGUCUGGCAGGUAGGUCGCGAUCAAUGGG [Same State Arginine B GF 11] | 33.7 nM | 48.7 nM | 44.3 nM | 41.9 nM | 47.9 nM |
| UUAACAUGAGGAUCACCCAUGUUUGAUGAAGGAGCGACCAGAGGGUCAGGUAGGUCGCAUCACAUGAGGAUCACCCAUGUCGCCC [DOUBLE!!! :-D #13] | 22.3 nM | 26 nM | 22.4 nM | 21.8 nM | 25.8 nM |
